Laboratory results from patent US20200024330A1.

Tests used:
[1] = target: HIV-1 JRFL envelope glycoprotein (Env) on pseudovirus (HIV-1); assay: cell-based or functional assay
[2] = target: HIV-1 92TH021 envelope glycoprotein (Env) on pseudovirus (HIV-1); assay: cell-based or functional assay
[3] = target: HIV-1 92BR020 envelope glycoprotein (Env) on pseudovirus (HIV-1); assay: cell-based or functional assay
[4] = target: HIV-1 92UG005 envelope glycoprotein (Env) on pseudovirus (HIV-1); assay: cell-based or functional assay
[5] = target: HIV-1 92RW020 envelope glycoprotein (Env) on pseudovirus (HIV-1); assay: cell-based or functional assay
[6] = target: HIV-1 MGRM-AG-005 envelope glycoprotein (Env) on pseudovirus (HIV-1); assay: cell-based or functional assay
[7] = target: HIV-1 MGRM-C-026 envelope glycoprotein (Env) on pseudovirus (HIV-1); assay: cell-based or functional assay
[8] = target: HIV-1 APV6 envelope glycoprotein (Env) on pseudovirus (HIV-1); assay: cell-based or functional assay
[9] = target: HIV-1 MGRM-D-001 envelope glycoprotein (Env) on pseudovirus (HIV-1); assay: cell-based or functional assay
[10] = target: HIV-1 MGRM-D-018 envelope glycoprotein (Env) on pseudovirus (HIV-1); assay: cell-based or functional assay
[11] = target: aMLV envelope protein on pseudovirus (negative control virus); assay: cell-based or functional assay
[12] = target: HIV-1 APV13 envelope glycoprotein (Env) on pseudovirus (HIV-1); assay: cell-based or functional assay
[13] = target: HIV-1 APV17 envelope glycoprotein (Env) on pseudovirus (HIV-1); assay: cell-based or functional assay
[14] = target: HIV-1 92UG024 envelope glycoprotein (Env) on pseudovirus (HIV-1); assay: cell-based or functional assay
[15] = target: HIV-1 JRCSF envelope glycoprotein (Env) on pseudovirus (HIV-1) (UniProt P20871); assay: cell-based or functional assay
[16] = target: HIV-1 MGRM-C-028 envelope glycoprotein (Env) on pseudovirus (HIV-1); assay: cell-based or functional assay
[17] = target: HIV-1 NL43 envelope glycoprotein (Env) on pseudovirus (HIV-1); assay: cell-based or functional assay
[18] = target: HIV-1 93UG077 envelope glycoprotein (Env) on pseudovirus (HIV-1); assay: cell-based or functional assay
[19] = target: HIV-1 94UG103 envelope glycoprotein (Env) on pseudovirus (HIV-1); assay: cell-based or functional assay
[20] = target: HIV-1 MGRM-C-027 envelope glycoprotein (Env) on pseudovirus (HIV-1); assay: cell-based or functional assay
[21] = target: HIV-1 MGRM-A-010 envelope glycoprotein (Env) on pseudovirus (HIV-1); assay: cell-based or functional assay
[22] = target: HIV-1 93IN905 envelope glycoprotein (Env) on pseudovirus (HIV-1); assay: cell-based or functional assay
[23] = target: HIV-1 CMU02 envelope glycoprotein (Env) on pseudovirus (HIV-1); assay: cell-based or functional assay
[24] = target: WT JR-FL gp120 (HIV-1 (isolate JR-FL)); assay: ELISA on coated gp120; EC50 by nonlinear regression
[25] = target: JR-FL gp120 ΔV3 (HIV-1 (isolate JR-FL)); assay: as above
[26] = target: JR-FL gp120 ΔV1/ΔV2 (HIV-1 (isolate JR-FL)); assay: as above
[27] = target: HIV-1 Env of isolate MGRM-C-026 (HIV-1); assay: cell-based or functional assay
[28] = target: HIV-1 Env of isolate 93IN905 (HIV-1); assay: cell-based or functional assay
[29] = target: HIV-1 Env of isolate JR-CSF (HIV-1) (UniProt P20871); assay: cell-based or functional assay
[30] = target: Env of the clade D HIV-1 pseudoviruses of the cross-clade 162-pseudovirus panel (n = 25); assay: cell-based or functional assay
[31] = target: Env of the clade C HIV-1 pseudoviruses of the cross-clade 162-pseudovirus panel (n = 27); assay: cell-based or functional assay
[32] = target: Env of the clade B HIV-1 pseudoviruses of the cross-clade 162-pseudovirus panel (n = 31); assay: cell-based or functional assay
[33] = target: Env of the clade F HIV-1 pseudoviruses of the cross-clade 162-pseudovirus panel (n = 15); assay: cell-based or functional assay
[34] = target: Env of the clade A HIV-1 pseudoviruses of the cross-clade 162-pseudovirus panel (n = 26); assay: cell-based or functional assay
[35] = target: Env of the clade G HIV-1 pseudoviruses of the cross-clade 162-pseudovirus panel (n = 15); assay: cell-based or functional assay

B1: PGT-136 (5329_C19; 5366_P21) human monoclonal anti-HIV antibody (antibody, V domains shown)
VH: QLQLQESGPGLVKPSETLSLTCTVSGGSMRGTDWGENDFHYGWIRQSSAKGLEWIGSIHWRGRTTHYKTSFRSRATLSIDTSNNRFSLTFSFVTAADTAVYYCARHKYHDIFRVVPVAGWFDPWGQGLLVTVSS
VL: EIVMTQSPPTLSVSPGETATLSCRASQNVKNNLAWYQLKPGQAPRLLIFDASSRAGGIPDRFSGSGYGTDFTLTVNSVQSEDFGDYFCQQYEEWPRTFGQGTKVDIK
B1 was tested, and the neutralization IC50 [1] was over 10 µg/mL, the neutralization IC80 [1] was over 10 µg/mL and the neutralization IC90 [1] was over 10 µg/mL. The neutralization IC95 [1] was over 10 µg/mL, the neutralization IC50 [2] was over 10 µg/mL and the neutralization IC80 [2] was over 10 µg/mL. For the same binder, the neutralization IC90 [2] was over 10 µg/mL, the neutralization IC95 [2] was over 10 µg/mL and the neutralization IC50 [3] was over 10 µg/mL. The neutralization IC80 [3] was over 10 µg/mL, the neutralization IC90 [3] was over 10 µg/mL and the neutralization IC95 [3] was over 10 µg/mL. For the same binder, the neutralization IC50 [4] was over 10 µg/mL, the neutralization IC80 [4] was over 10 µg/mL and the neutralization IC90 [4] was over 10 µg/mL. For the same binder, the neutralization IC95 [4] was over 10 µg/mL, the neutralization IC50 [5] was 0.738 µg/mL and the neutralization IC80 [5] was over 10 µg/mL. It also gave a neutralization IC90 [5] of over 10 µg/mL, a neutralization IC95 [5] of over 10 µg/mL and a neutralization IC50 [6] of over 10 µg/mL. The neutralization IC80 [6] was over 10 µg/mL, the neutralization IC90 [6] was over 10 µg/mL and the neutralization IC95 [6] was over 10 µg/mL. For the same binder, the neutralization IC50 [7] was 0.0065 µg/mL, the neutralization IC80 [7] was 0.0285 µg/mL and the neutralization IC90 [7] was 0.0687 µg/mL. The neutralization IC95 [7] was 0.159 µg/mL, the neutralization IC50 [8] was over 10 µg/mL and the neutralization IC80 [8] was over 10 µg/mL. The neutralization IC90 [8] was over 10 µg/mL, the neutralization IC95 [8] was over 10 µg/mL and the neutralization IC50 [9] was over 10 µg/mL. For the same binder, the neutralization IC80 [9] was over 10 µg/mL, the neutralization IC90 [9] was over 10 µg/mL and the neutralization IC95 [9] was over 10 µg/mL. For the same binder, the neutralization IC50 [10] was over 10 µg/mL, the neutralization IC80 [10] was over 10 µg/mL and the neutralization IC90 [10] was over 10 µg/mL. For the same binder, the neutralization IC95 [10] was over 10 µg/mL, the neutralization IC50 [11] was over 10 µg/mL and the neutralization IC80 [11] was over 10 µg/mL. It also gave a neutralization IC90 [11] of over 10 µg/mL, a neutralization IC95 [11] of over 10 µg/mL and a neutralization IC50 [12] of over 10 µg/mL. For the same binder, the neutralization IC80 [12] was over 10 µg/mL, the neutralization IC90 [12] was over 10 µg/mL and the neutralization IC95 [12] was over 10 µg/mL. For the same binder, the neutralization IC50 [13] was over 10 µg/mL, the neutralization IC80 [13] was over 10 µg/mL and the neutralization IC90 [13] was over 10 µg/mL. For the same binder, the neutralization IC95 [13] was over 10 µg/mL, the neutralization IC50 [14] was 0.0915 µg/mL and the neutralization IC80 [14] was 0.619 µg/mL. For the same binder, the neutralization IC90 [14] was 1.96 µg/mL, the neutralization IC95 [14] was 5.97 µg/mL and the neutralization IC50 [15] was over 10 µg/mL. It also gave a neutralization IC80 [15] of over 10 µg/mL, a neutralization IC90 [15] of over 10 µg/mL and a neutralization IC95 [15] of over 10 µg/mL. It also gave a neutralization IC50 [16] of over 10 µg/mL, a neutralization IC80 [16] of over 10 µg/mL and a neutralization IC90 [16] of over 10 µg/mL. For the same binder, the neutralization IC95 [16] was over 10 µg/mL, the neutralization IC50 [17] was over 10 µg/mL and the neutralization IC80 [17] was over 10 µg/mL. For the same binder, the neutralization IC90 [17] was over 10 µg/mL, the neutralization IC95 [17] was over 10 µg/mL and the neutralization IC50 [18] was over 10 µg/mL. The neutralization IC80 [18] was over 10 µg/mL, the neutralization IC90 [18] was over 10 µg/mL and the neutralization IC95 [18] was over 10 µg/mL. The neutralization IC50 [19] was over 10 µg/mL, the neutralization IC80 [19] was over 10 µg/mL and the neutralization IC90 [19] was over 10 µg/mL. For the same binder, the neutralization IC95 [19] was over 10 µg/mL, the neutralization IC50 [20] was over 10 µg/mL and the neutralization IC80 [20] was over 10 µg/mL. The neutralization IC90 [20] was over 10 µg/mL, the neutralization IC95 [20] was over 10 µg/mL and the neutralization IC50 [21] was over 10 µg/mL. The neutralization IC80 [21] was over 10 µg/mL, the neutralization IC90 [21] was over 10 µg/mL and the neutralization IC95 [21] was over 10 µg/mL. The neutralization IC50 [22] was 0.0135 µg/mL, the neutralization IC80 [22] was 0.0623 µg/mL and the neutralization IC90 [22] was 0.156 µg/mL. For the same binder, the neutralization IC95 [22] was 0.379 µg/mL, the neutralization IC50 [23] was over 10 µg/mL and the neutralization IC80 [23] was over 10 µg/mL. It also gave a neutralization IC90 [23] of over 10 µg/mL and a neutralization IC95 [23] of over 10 µg/mL.

B2: PGT-137 (antibody, V domains shown)
VH: EVHLEESGPGLVRPSETLSLTCTASGGSIRGGEWGDSDYHWGWVRHSPEKGLEWIGSIHWRGTTHYNAPFRGRGRLSIDLSRNQFSLRLTSVTAEDTAVYYCVKHKYHDIVMVVPIAGWFDPWGQGLQVTVSS
VL: EIMMTQSPAILSVSPGDRATLSCRASQSVKNNLAWYQKRPGQAPRLLIFDTSSRASGIPARFSGGGSGTEFTLTVNSMQSEDFATYYCQQYEEWPRTFGQGTKVEIK
For B2, the EC50 [24] was 0.1 µg/mL, the EC50 [25] was 0.1 µg/mL and the EC50 [26] was 0.2 µg/mL. It also gave a Primary Neutralization Index (B cell culture well 5345 I1) [27] of 11.3, a Primary Neutralization Index (B cell culture well 5345 I1) [28] of 3.3 and a Primary Neutralization Index (B cell culture well 5345 I1) [29] of 1.1. For the same binder, the Median IC50 against viruses neutralized with an IC50 <50 µg/ml [30] was 6.3 µg/mL, the Median IC50 against viruses neutralized with an IC50 <50 µg/ml [31] was 0.23 µg/mL and the Median IC50 against viruses neutralized with an IC50 <50 µg/ml [32] was 8.55 µg/mL. The Median IC50 against viruses neutralized with an IC50 <50 µg/ml [33] was 6.23 µg/mL, the Median IC50 against viruses neutralized with an IC50 <50 µg/ml [34] was 0.72 µg/mL and the Median IC50 against viruses neutralized with an IC50 <50 µg/ml [35] was 0.23 µg/mL.
